The supplement of paper PMC9942255
Several values for one entry are separate records, joined by “and”; a condition that tells them apart may be missing. Identical values can stand only once.

Test system: Bacillus subtilis DB104 (SP-AmyQ fusion secretion)
Test: AmyQ secretion efficiency, weighted average sort bin (1 = best secretion, 10 = worst) (bin number (weighted average, 1-10)); higher = lower secretion efficiency
Outline: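 The secretion score gives the average bin number weighted by read frequency and normalised to beads per bin, with low-abundance sequences excluded. Bins were 10 equally populated green/red fluorescence ratio fractions of occupied ~65 nL alginate beads, sorted by large-particle flow cytometry. The beads held fluorescein-starch and about 0.3 cells each of an amyE-integrated B. subtilis DB104 library fusing designed signal peptides to mature AmyQ, and they were grown about 13 h at room temperature and stained with nile red before sorting and Illumina sequencing.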

Sequence	AmyQ secretion efficiency
MKRRKNVCLTALLSVLLVAGSVPFHAEAKKP	2.59
MKTKTLFIFSAILTLSIRKPNRTFAQTA	6.8
MNKKYFVLIVCIIFTSALFPTFAVTVTAAQG	1.05
MRKYTVIASILLSFLSVLKKKKHHKSKAFPV	7.85
MFKKHTISLLIIFLLASAVLAKPPPTTATIEAHTV	7.2
MKRFSTAYLLLGILCSAAVFLIGAPSRALGAPD	2.52
MKKKLAAGLTASAIVGTTLVVTPAEDATI	6.33
MFKKHTISLLIIFLLASAVLAKPLEAHTV	2.46
MMLAKRVSALTPSTTLAITAKAKEL	7.47
MKRIRIPMTLALGAALTIAPLSFASYEEN	6.51
MMLSVKIAGVLTVAAAAMTAKMYATAKGN	5.4
MLTKRLLTIYIMLLGLIAWFPGAAQAAKK	4.2
MRSKKLWISLLFALTLIFTMAFSNMSPQAAGK	4.28
MRFTKFTFIMITVVGFLSVLGLAAVFPLTAQAEKA	1.81
MRQRKKAVFVIMISFLIATVNVNTAHAAID	6.22
MKLSVKFLFIAGVLTVAAAAMTAKMYATAKGN	4.51
MKRIRIPMTLALGAALTIAPLDEEDDDASAEEN	5.27
MKKVLMAFIICLSLILSVLAAPPSGVKAESV	1.85
MLCVMMLLFSAIASFPVSFQAKDQ	8.56
MPSCKQLIVCSLAAILLLIPSVSFAADS	3.5
MRFTKVVGFLSVLGLAAVFPLTAQTEKA	5.69
MRMLWRSLALCGLALTLAPCMQAAEP	1.94

Sequence	AmyQ secretion efficiency
MMSTIFAFLTGLMMFGTITAASASPD	4.92
MKRSIMLSNIIILLVSLRVWMVFLMNWVTPDRKTAAAAVY	6.91
MKVLLSALLLLLFAFEPSYSGKKL	5.87
MRKKRVITCVMAASLTLGSLLPAGYCSAKED	3.36
MKKSQYFIVFICFFVLFSVHPIAPAAADS	4.14
MSSCGGILIVCSLAAILLLIPSVSFAADS	4.26
MRKSLITLGLASVIGTSSFLIPFTSKTLSAETL	4.7
MLKRTSLFISSAVLLSILLPSGQAHAQSA	2.05
MLFNTSFVSSLFISSAVLLSILLPSGQAHAQSA	2.42
MTKKAWFLPLVCVLLISGWLAPAASASKQTT	2.02
MKKGIIRFLLVSFVLFFALSTGITGVQAAPD	2.73
MKKTIMSFVAVAALSTTAFGAHASSKEI	3.17
MRKKRVITCVMAASLTLGSLLPAGYASGKED	3.86
MKKWIYVVLVLSIAGIGGFSVHSASS	5.94
MKVCQKSIVRFKRRKRRGTFVISVPFMANAQSD	7.96
MGRIKTKITILLVLLLLLAGGYMYIN	5.89 and 6.33 and 5.86
MKRIRIPMTLALGAALTIAPLSFASTEEN	8.25
MKKELLASLVLCLSLSPLVSTNEVFAAEE	2.07
MRKTIFAFLTGLMMFEDDEEDASASPD	5.45
MKKIVSILFMFGLVMGFSQFQPSTMFAADK	2.83
MLKKKWMVGLLAGCLAAGGFSYNMFATEN	6.41
MPYLKRVLLLLVTGLFMSLFAVTATASHQTG	1.34

Sequence	AmyQ secretion efficiency
MGCTMMLLFSAIASFPVSAQAKDQ	6.4
MKLSVKIAGVLTVAAAAMTAKMYATRKGN	7.91
MQRKRLLTIYIMLLGLIAWFPGAAQAEEK	1.93
MNSYINVLTMCFLGLILFVPTALADNS	1.26
MLKKIALTLCPAIVGSLLFFTAPASAHEE	2.4
MPYLKRVLLLLVTGLFMSLFAVTATSSAQTG	1.26
MHLIRAAGAVCLAVVLIAGCRKRRRQHQAEGENT	6.76
MRPVFPLILSAVLFLSCFDDDDDTEASASKR	4.17
MKKKQVMLALTAAAGLGLTALHDAPAAKAAPL	2.66
MKKRKKKVSSLFISSAVLLSILLPSGQAHAQSA	1.03
MKKRLIGFLVLVPALIMSGITLEEANKK	7.58
MKKKRLLAGALTATVLFGTCAVDVPGIISPKTAEAASQ	1.66
MKKGIIRFLLVSFVLFFALSTGITGVQHAPA	5.62
MRKKRVITCVMAASLTLGSLLPAGYMSAKED	2.67
MRSKKLWISLLFALTLITLLVAFTMAFSNMSAQAAGK	7.19
MTGTIITATTAVVLGSTLFAGAASAQSI	2.31
MNFKKTTSIVVSALSISALALSVSGVASAHEI	3.35
MGRIKTKITILLVLLLLLAGGYTYIN	5.32
MKSKGSIMACLILFSFTITTVTFINTETISAFSN	5.25
MRKKCSVCLWILVLLLSCKKRKKRAYAATS	6.88
